Test results from publication PMC11790920 (Nature Communications, 2025).

Molecular target: T1, eukaryotic translation elongation factor 1A (eEF1A), native, full length (S. cerevisiae, UniProt P02994 1-458)
T1 sequence (looked up): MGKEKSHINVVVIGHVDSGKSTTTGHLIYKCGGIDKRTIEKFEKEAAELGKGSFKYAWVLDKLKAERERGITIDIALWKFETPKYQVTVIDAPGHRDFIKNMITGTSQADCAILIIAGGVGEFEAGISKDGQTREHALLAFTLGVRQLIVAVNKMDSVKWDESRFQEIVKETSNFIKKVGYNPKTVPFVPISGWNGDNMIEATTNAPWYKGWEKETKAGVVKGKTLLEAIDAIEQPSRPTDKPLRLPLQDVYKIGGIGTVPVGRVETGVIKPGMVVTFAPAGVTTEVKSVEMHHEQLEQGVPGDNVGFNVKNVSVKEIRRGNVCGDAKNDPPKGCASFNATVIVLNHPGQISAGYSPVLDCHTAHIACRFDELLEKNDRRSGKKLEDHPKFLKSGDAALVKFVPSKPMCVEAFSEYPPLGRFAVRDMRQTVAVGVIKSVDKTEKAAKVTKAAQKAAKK
Experiment: pull-down

B1: recombinant Ypl225w-3xFLAG (natural protein, S. cerevisiae, UniProt Q08971 1-146, looked up)
chain: MSTFNAETADNLEDIEKQFAVVAVEQAETYWKLLTSVPGSKLRLTKFDDEIYENFMERFPEYKDVERVKKFTEEELKTKEAKERWRKFFTIFEKKIEDYNFGTLLRTDASAEYGQFTTCFVVRLQFYAFEIARNKHGLNDWIVGQK
binding result: binds
